In patent publication US20160145654A1:

Legend:
[1] = target: human IgG from pooled human serum (Sigma-Aldrich); test: ELISA of heated granules, human serum, anti-IgG-HRP
[2] = target: labeled mouse IgG2b monoclonal antibody conjugated to phycoerythrin; test: FACS of particles with 10 µg/ml PE labeled mouse IgG2b mAb
[3] = target: labeled mouse IgG2b monoclonal antibody conjugated to phycoerythrin; test: FACS of particles with 10 µg/mL PE labeled mouse IgG2b mAb
[4] = target: human IgG from pooled human serum (Sigma-Aldrich); test: ELISA, granules coated on wells, pooled human serum, polyclonal anti-IgG-HRP, OPD

binding capacity after heating for 15 min at 60° C. [1]: 60%
fold more IgG bound per particle against particles from pBHR69-ZZ(-)phaC [2]: > 10 fold
fold increased binding affinity against particles from pBHR69-ZZ(-)phaC (about 150 nm) [3]: 10 fold
fold increase in absorption at 490 nm against wild type PHA granules [4]: > 2 fold
Substance: ZZ domain-PHA synthase fusion without signal peptide, on PHA granules (from UniProt P23608 1-589)
